# Laboratory results as given in patent publication US20220073922A1.
# Key:
# [1] = biological target: human VEGF-121 (human) (UniProt P15692); assay: receptor competition assay: His-tagged human VEGF-121 (0.1 nM) on beads with 1 nM human VEGF Receptor 2 and varied Lucentis; bound receptor fraction by flow cytometry, dose-response inhibition fit; blocked partner: VEGF Receptor 2
# [2] = biological target: human VEGF-121 (human) (UniProt P15692); assay: magnetic-bead partitioning binding assay read by flow cytometry; bound fraction against VEGF-121 concentration (1e-12 to about 1e-8 M), Langmuir one-site fit; how Lucentis was immobilised is not described
# [3] = biological target: human VEGF-121 (human) (UniProt P15692); assay: receptor competition assay: His-tagged human VEGF-121 (0.1 nM) on beads with 1 nM human VEGF Receptor 1 and varied Lucentis; bound receptor fraction by flow cytometry, dose-response inhibition fit; blocked partner: VEGF Receptor 1
# human VEGF-121 (human), sequence (P15692 other isoform, or with tags, fused parts or gaps limits assumed): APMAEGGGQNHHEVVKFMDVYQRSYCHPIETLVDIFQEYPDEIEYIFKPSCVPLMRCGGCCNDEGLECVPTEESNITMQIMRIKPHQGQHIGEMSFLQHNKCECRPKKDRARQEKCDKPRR
substance,measurement,setting,value
Lucentis® (Fab),IC50,[1],2.36 nM
same,Kd,[2],1.69 nM
same,IC50,[3],5.58 nM
